Assay results taken from publication PMC11211670 (mLife, 2024).

B1: Escherichia coli CTP synthase (cytidine triphosphate synthase) (enzyme, UniProt P0A7E5 1-545, looked up)
chain: MTTNYIFVTGGVVSSLGKGIAAASLAAILEARGLNVTIMKLDPYINVDPGTMSPIQHGEVFVTEDGAETDLDLGHYERFIRTKMSRRNNFTTGRIYSDVLRKERRGDYLGATVQVIPHITNAIKERVLEGGEGHDVVLVEIGGTVGDIESLPFLEAIRQMAVEIGREHTLFMHLTLVPYMAASGEVKTKPTQHSVKELLSIGIQPDILICRSDRAVPANERAKIALFCNVPEKAVISLKDVDSIYKIPGLLKSQGLDDYICKRFSLNCPEANLSEWEQVIFEEANPVSEVTIGMVGKYIELPDAYKSVIEALKHGGLKNRVSVNIKLIDSQDVETRGVEILKGLDAILVPGGFGYRGVEGMITTARFARENNIPYLGICLGMQVALIDYARHVANMENANSTEFVPDCKYPVVALITEWRDENGNVEVRSEKSDLGGTMRLGAQQCQLVDDSLVRQLYNAPTIVERHRHRYEVNNMLLKQIEDAGLRVAGRSGDDQLVEIIEVPNHPWFVACQFHPEFTSTPRDGHPLFAGFVKAASEFQKRQAK
notes: CTP synthase of Escherichia coli, full-length gene in pET28a; In the cryo-EM sample it forms tetramers that stack into filaments; also called ecCTPS; wild-type ecCTPS; source: E. coli Transetta (DE3), purified (Ni-Agarose, Superose 6 Increase)
B2: ecCTPS with an inserted hCTPS helix 12 (ecCTPS^helix12+) (enzyme, Escherichia coli | human)
chain: MTTNYIFVTGGVVSSLGKGIAAASLAAILEARGLNVTIMKLDPYINVDPGTMSPIQHGEVFVTEDGAETDLDLGHYERFIRTKMSRRNNFTTGRIYSDVLRKERRGDYLGATVQVIPHITNAIKERVLEGGEGHDVVLVEIGGTVGDIESLPFLEAIRQMAVEIGREHTLFMHLTLVPYMAASGEVKTKPTQHSVKELLSIGIQPDILICRSDRAVPANERAKIALFCNVPEKAVISLKDVDSIYKIPGLLKSQGLDDYICKRFSLNCPEANLSEWEQVIFEEANPVSEVTIGMVGKYIELPDAYKSVIEALKHGGLKNRVSVNIKLIDSQDVETRGVEEEPVRYHEAWQILKGLDAILVPGGFGYRGVEGMITTARFARENNIPYLGICLGMQVALIDYARHVANMENANSTEFVPDCKYPVVALITEWRDENGNVEVRSEKSDLGGTMRLGAQQCQLVDDSLVRQLYNAPTIVERHRHRYEVNNMLLKQIEDAGLRVAGRSGDDQLVEIIEVPNHPWFVACQFHPEFTSTPRDGHPLFAGFVKAASEFQKRQAK
notes: E. coli CTP synthase, the stretch before the insertion; Helix 12 of human CTPS1, inserted; H346 and W349 of the variant correspond to H355 and W358 of hCTPS1; E. coli CTP synthase, the stretch after the insertion; It ends with HHHHHH, which is written here as the tag; also called engineered ecCTPS

How the values were obtained:
[1] = target: the molecule itself; assay: cryo-EM structure; 7 uM ecCTPS incubated with 0.58 mM DON, 1 mM CTP, 0.5 mM NADH and 10 mM MgCl2 for 30 min at 0 °C; single particle analysis of filaments, D2 symmetry, mask on the central tetramer
[2] = target: the molecule itself; assay: cryo-electron micrographs of filaments; purified ecCTPS^helix12+ in the product state (CTP); filaments seen in cryo samples

Protein | stoichiometry N [1] | binding result [2]
B1 | 4 | 
B2 |  | binds
